Series [1] deals with T1, TRF1 (human, UniProt P54274). As to the kind of experiment: single-molecule magnetic tweezers. Conditions: delta-delta G of fork opening with vs without 10 nM TRF1 (61 vs 50 kBT); 20 mM HEPES pH 7.5, 100 mM NaCl, 1 mM EDTA, 0.0063% Tween-20; EMSA 30 min on ice, 5% PAGE in 1x TBE at 4 C; magnetic tweezers at 23 C. For orientation: A gel shift assay detects complexes by their altered migration in electrophoresis.

The target in series [2] is T1, TRF1. The experiment in a line: EMSA; dimer concentration; Hill fit; 10 nM DNA, n=3; 20 mM HEPES pH 7.5, 100 mM NaCl, 1 mM EDTA, 0.0063% Tween-20; EMSA 30 min on ice, 5% PAGE in 1x TBE at 4 C; magnetic tweezers at 23 C. Conditions: protein: recombinant; tags: trx tag (modified pET32a, Ni-NTA) removed with 3C protease; chain copies: 2; label: FAM on strand 2 (printed as FAM-CTAACCC..., 5'); blunt.

T1 sequence (P54274 3-439): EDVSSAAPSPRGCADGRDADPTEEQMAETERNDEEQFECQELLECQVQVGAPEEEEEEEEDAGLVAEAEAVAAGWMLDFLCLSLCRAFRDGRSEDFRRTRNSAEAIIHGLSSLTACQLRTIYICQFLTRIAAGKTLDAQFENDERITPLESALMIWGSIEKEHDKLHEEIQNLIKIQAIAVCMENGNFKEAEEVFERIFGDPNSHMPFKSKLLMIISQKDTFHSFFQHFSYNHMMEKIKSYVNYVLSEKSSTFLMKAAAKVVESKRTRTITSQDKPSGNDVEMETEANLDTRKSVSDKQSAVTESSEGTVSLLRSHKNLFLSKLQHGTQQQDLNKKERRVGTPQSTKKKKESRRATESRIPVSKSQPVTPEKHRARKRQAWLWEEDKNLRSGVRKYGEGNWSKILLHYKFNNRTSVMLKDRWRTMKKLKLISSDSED

The molecule “short telomeric hairpin (13 TTAGGG repeats)” yielded a binding signal with TRF1 [1] of 11 kBT.

B1: telomeric dsDNA (two TTAGGG sites) (dsDNA)
DNA 1: GTTAGGGTTAGGGTTAG
DNA 2: CTAACCCTAACCCTAAC
Broadly, the Kd is the equilibrium constant for the complex coming apart. For B1, the Kd in the series with TRF1 [2] is 17.5 ± 0.7 nM.

Values taken from PMC7826288, “Dynamics of TRF1 organizing a single human telomere” (Nucleic Acids Research, 2020).
